In the MegaScale stability set (Tsuboyama et al. 2023):

B1: EEHEE_rd3_0130 (parent)
chain: TKIIVNGKTFTAPTEEEAQKIAEKLAKKAGLTVHKKNGTFELK

Variants of: B1
Test: folding stability dG (cDNA display proteolysis); higher = more stable
Settings: PBS, room temperature

Folding stability dG [kcal/mol]: each site, then its substitutions
I21: C 1.51 | R 0.152 | H -0.132 | L 0.99 | A -0.095 | K 0.005 | V 0.46 | E -0.19 | Q -0.043 | M 0.647 | W 1.3 | N -0.725 | D -0.719 | F 1.01 | T -0.08 | Y 0.645 | S -0.174 | P -0.76
K24: D 0.676 | R 1.08 | F 1.47 | H 0.996 | M 1.14 | L 1.11 | Q 0.873 | Y 1.64 | G 0.617 | W 1.78 | V 0.829 | E 0.799 | I 0.99 | T 0.939 | S 0.873 | A 1.06 | N 0.76
L31: A -0.168 | F 0.713 | Q -0.255 | I -0.35 | N -0.814 | R -0.423 | P -0.624 | T -0.366 | V -0.031 | K -0.636 | Y 0.657 | H -0.13 | E -0.89 | S -0.591 | G -0.504 | C -0.1 | W 0.742 | M 0.895 | D -0.475
E17: V 0.922 | G 0.263 | W 0.923 | D 0.564 | Q 0.916 | T 0.526 | I 1.33 | N 0.064 | H 0.567 | S 0.635 | L 1.25 | Y 0.614 | R 0.677 | P -0.793 | C 1.46 | M 1.19 | F 0.623 | K 0.72 | A 0.997
E23: V 0.598 | W 0.894 | D 0.78 | A 0.74 | C 1.52 | I 0.873 | L 0.894 | Q 0.752 | R 0.794 | H 0.803 | T 0.669 | G 0.246 | M 1.04 | F 0.837 | Y 1.13 | K 0.602 | N 0.832 | S 0.686
G30: R 0.057 | Y -0.036 | I -0.078 | V -0.549 | H 0.531 | F -0.093 | W -0.249 | P -0.624 | M 0.018 | C 0.98 | A -0.039 | D 0.07 | K 0.272 | E -0.258 | N 0.349 | T 0.204 | L -0.179 | S 0.137 | Q 0.163
T14: W 0.054 | Y -0.419
E15: I 0.689 | H 0.545 | K 0.359 | C 1.07 | F 1 | S 0.561 | W 0.965 | N 0.31 | M 0.994 | R 0.366 | A 0.725 | D 0.325 | Y 1.42 | L 0.994 | Q 0.576 | G 0.188 | P 0.736 | T 0.439 | V 0.847
T32: C 1.05 | M 0.321 | K 0.69 | R 0.561 | E 0.222 | A 0.577 | I 0.92 | L 0.291 | H 0.159 | W -0.409 | P -0.446 | Y 0.023 | S 0.621 | Q 0.523 | N 0.28 | V 1.02 | D -0.061 | G -0.284 | F 0.022
K28: P 0.128 | L 1.03 | E 0.862 | N 0.582 | Q 0.873 | V 0.795 | F 0.971 | M 1.05 | W 1.53 | Y 1.06 | R 1.14 | I 0.992 | H 0.757 | S 0.779 | D 0.738 | T 0.727 | G 0.475 | A 1.09
Q19: S 0.739 | E 0.914 | P -0.468 | H 0.606 | L 0.972 | F 0.959 | M 0.872 | C 1.25 | D -0.048 | K 0.789 | Y 1.03 | A 0.824 | W 1.12 | R 1.04 | N 0.383 | T 0.379 | V 0.457 | I 0.665 | G 0.357
A18: S -0.692 | K -0.952 | I -0.353 | F -0.368 | C 0.561 | R -0.569 | V -0.585 | N -0.938 | M -0.37 | W -0.4 | E -0.74 | D -0.679 | T -0.68 | L -0.286 | Y -0.863 | Q -0.715 | G 0.375
E16: R 0.892 | Y 0.864 | I 0.723 | V 0.573 | K 0.756 | H 0.749 | P 0.061 | L 0.722 | T 0.649 | M 0.821 | G 0.554 | C 0.888 | D 0.611 | N 0.47 | S 0.797 | Q 0.827 | W 0.933 | A 0.911 | F 0.765
A22: I 0.601 | V 0.71 | M 0.143 | T -0.186 | Y -0.256 | R -0.631 | H -0.772 | Q -0.657 | W 0.017 | L 0.301 | F 0.168 | G -0.83 | E -0.91 | S 0.153 | C 0.374
A26: T -0.552 | V -0.292 | E -0.437 | S 0.1 | N -0.556 | C 0.45 | H -0.447 | L 0.094 | I -0.198 | D -0.815 | F 0.197 | Q -0.508 | K -0.188 | R -0.166 | W -0.138 | M -0.151 | G 0.163 | Y -0.009
L25: V 0.245 | E -0.265 | I 1.13 | C 1.13 | G -0.493 | D -0.802 | M 0.784 | H -0.294 | A -0.68 | Q -0.482 | T -0.134 | Y 0.649 | W 1.48 | F 0.651 | R -0.578
A29: N 1.17 | W 3.21 | L 2.45 | F 2.88 | Y 3.33 | T 1.2 | D 0.326 | S 0.857 | H 2.12 | M 2.08 | E 0.607 | Q 0.726 | V 0.495 | C 2.56 | P -0.744 | K 0.837 | I 0.979 | R 1.04 | G 0.616
V33: H -0.447 | E -0.529 | G -0.128 | D -0.376 | F 0.358 | C 1.13 | A 0.036
K20: T 0.562 | L 0.783 | E 0.663 | D 0.538 | G 0.122 | M 0.854 | P -0.378 | H 0.597 | A 0.82 | N 0.548 | I 0.836 | S 0.688 | Y 0.745 | R 1.01 | V 0.724 | W 0.804 | F 0.767 | Q 0.722
K27: I 0.597 | Y 0.616 | G 0.228 | C 1.03 | Q 0.76 | D 0.266 | F 0.736 | S 0.587 | P -0.957 | A 0.812 | T 0.52 | M 0.725 | V 0.456 | W 0.749 | H 0.537 | R 0.991 | L 0.834 | E 0.532 | N 0.413
